Reference: US20120238496A1

Target: FGF-21 receptor
Test: cell-based or functional assay

Glucose uptake CPM, 3T3-L1 fat cells, protein at 0 nM (baseline): 1880 CPM
Glucose uptake CPM, 3T3-L1 fat cells, protein at 0.03 nM: 1800 CPM
Glucose uptake CPM, 3T3-L1 fat cells, protein at 0.15 nM: 2110 CPM
Glucose uptake CPM, 3T3-L1 fat cells, protein at 0.8 nM: 2200 CPM
Glucose uptake CPM, 3T3-L1 fat cells, protein at 4 nM: 3300 CPM
Glucose uptake CPM, 3T3-L1 fat cells, protein at 20 nM: 5130 CPM
Glucose uptake CPM, 3T3-L1 fat cells, protein at 100 nM: 5320 CPM
Substance: recombinant human FGF-21 (from UniProt Q9NSA1 29-209) (ligand)
